Test results taken from the supplement of paper PMC9170038.

Test system: MS2 coat protein
Assay: apparent KD of MS2 coat protein; designed switch direction (-1 OFF switch, 1 ON switch): -1; higher = weaker reporter binding
Summary of the method: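 Stalled E. coli RNA polymerase transcribed designed RNA switches on Illumina chips, which were then titrated with SNAP-549-labelled MS2 coat protein, doubling from 0.7 or 1.5 nM to 3 µM. Steps lasted from 0.8–1.5 h at the lowest concentration to 10–20 min at the highest. The apparent KD is each design's median over clusters of curve-fitted normalised fluorescence.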

[1] = input ligand: microRNA oligo, concentration not stated
[2] = Eterna round: R95, input ligand: FMN 200 uM
[3] = Eterna round: R95, input ligand: microRNA oligo, concentration not stated
[4] = Eterna round: R95, input ligand: none

Sequence	apparent KD of MS2 coat protein (input ligand: FMN 200 uM) [nM]	apparent KD of MS2 coat protein (input ligand: none) [nM]	apparent KD of MS2 coat protein [1] [nM]	apparent KD of MS2 coat protein [2] [nM]	apparent KD of MS2 coat protein [3] [nM]	apparent KD of MS2 coat protein [4] [nM]
ACCUCACAUGAGGAUCACCCAUGUCAGGAUAUCUAAUGUAGUCGCGUUCCCGACGCUAAGAGAAGGGACGUUGA [EX1 #36] (Eterna round: R97, puzzle: Exclusion 1)	15.8	15	–	–	–	–
UGUCAGAUGGUAGGAUAUCCAUAUCGAGUGACUCUUUCAUAACAUGAGGAUCACCCAUGUCGGUGGGAGAAGGGCCGUAUGGUG [salish99_ExNG02_R04_027] (Eterna round: R96, puzzle: Exclusion NG 2)	22.9	25.2	14.5	–	–	–
CUUAGACAUGAGGAUCACCCAUGUGAGGAUAUGAAAUGAAUUAAGUAUGAAGUAUGAAUCAGAAGGCACAUAUG [Mat - Mod of Hyphema D33] (puzzle: Exclusion 1)	–	–	–	63	95.8	107
UGAAGGCGAGGAUAUACUGUAUGGGACAUGAGGAUCACCCAUGUUCUGUGUGUACCCGUCGUAGAAGGCGCGAAGA [EX5 C.9] (Eterna round: R97, puzzle: Exclusion 5)	16	14.5	–	–	–	–
GUGGGCUUUUAGGUUCUUAACAUGAGGAUCACCCAUGUGCUUGUCUUGCUGGCUGGCGGGUCGUCGGUCGGGCUUGU (Eterna round: R97, puzzle: Sensor, turn-off variant 1)	489	584	–	–	–	–
AACAGUCUAGAGGAUAUGCUGGAUAAAUAUCUGGCAGAAGGCUGGACAUGAGGAUCACCCAUGUAAAUACUACC [Omei Ex6 A1b] (Eterna round: R97, puzzle: Exclusion 6)	99.6	38.6	–	–	–	–
GCCUGUAGUGUGAGGAUAUGCUGCUCCAUAGAGCAGCAGAAGGCACAUGAGGAUCACCCAUGUGAUAACAGGCA (Eterna round: R97, puzzle: Brourd's mod of Exclusion 4)	443	151	–	–	–	–
ACCUCACAUGAGGAUCACCCAUGUCAGGAUAUAAAAGGAGGGCGAGGCAGCCAGGAAGUUAGAAGGGACACGCU [EX1 B.11] (Eterna round: R97, puzzle: Exclusion 1)	21.2	23.7	–	–	–	–
AUAAUGUAAGGAUAUCAGUCGACUAGCUGCGGCUAGUCGACUGAGAAGGUACAUGAGGAUCACCCAUGUGGUUC [E4/11-A3] (Eterna round: R97, puzzle: Exclusion 4)	185	304	–	–	–	–
UGAUCUAGCGGAGGAUAUACAUGAGGAUCACCCAUGUAUAGGCUAUGACCGUAGUCGUGGCACAUGUAGAAGGCCGCUAGAUCU [JL ENG2 3.78] (Eterna round: R96, puzzle: Exclusion NG 2)	43.7	15.2	12.8	–	–	–
GCUAGGAAUGUCAGGAUAUGCUGUUCCUUGGAACAGCAGAAGGGACAUGAGGAUCACCCAUGUGCUAACCUAGC [Mat - Exclusion 4 - JL Mod - D5] (Eterna round: R97, puzzle: Brourd's mod of Exclusion 4)	99.2	24.4	–	–	–	–
UCGGCGCGAGGAUAUGCGGUUCCUCCCUAGGGCCGGAGCGUACAUGAGGAUCACCCAUGUAGAAGGCGCGCCGC [Apr-15 SS2-35] (puzzle: Exclusion 2)	–	–	–	–	11.2	–
GUGAAGGUAGGAUAUACGAUAAUAUAGGGUAGAUAUAUAACACAUGAGGAUCACCCAUGUAGAAGGACCAAUUG [Mat - Exclusion 2 - Mod of my Tesla design - D59] (puzzle: Exclusion 2)	–	–	–	–	29.1	–
UAUUAGCAAGCAAAUGGGUACAUGAGGAUCACCCAUGUGCUCGUCUUAUAAGGUACUGUGCCGAAAGUCACGGUACC [mod--Eli2] (Eterna round: R97, puzzle: Sensor, turn-off variant 1)	23	23.4	–	–	–	–
GGAUCUAAGGUGAGGAUAUAGACUCCCAAAUGGAUCUAGAAGGCACUUGAGGAUCACCCAAGUAGUCUAGGGAA [Orered] (Eterna round: R97, puzzle: Brourd's mod of Exclusion 4)	33.6	16.9	–	–	–	–
UGUUGGCGAGGAUAUACAUGAGGAUCACCCAUGUGAGAGAAAAAAGUGAGGAAGAAAAGUAGAAGGCGCUGACU [salish99_ex3_r3_044] (puzzle: Exclusion 3)	–	–	–	254	44	51.8

Sequence	apparent KD of MS2 coat protein (input ligand: FMN 200 uM) [nM]	apparent KD of MS2 coat protein (input ligand: none) [nM]	apparent KD of MS2 coat protein [1] [nM]	apparent KD of MS2 coat protein [2] [nM]	apparent KD of MS2 coat protein [3] [nM]	apparent KD of MS2 coat protein [4] [nM]
AGGUGUAGAGGAUAUCUCUUCUCUCACAUGAGGAUCACCCAUGUCCUAAAGUCCAAGGAGAGAGAAGGCUACACCA [Omei Ex5 D4] (Eterna round: R97, puzzle: Exclusion 5)	107	110	–	–	–	–
AAGUACCGUCACGAUAGUGAUGGUACAACAAGUAAGUGAACAUGAGGAUCACCCAUGUCCUCUUUUGCUCGUCUUAU [Sensor 3 - 90] (puzzle: Sensor v3, turn-off variant 2)	–	–	–	309	18.4	334
GGGAAACAUGAGGAUCACCCAUGUCAGGAUAUGAUACUAUGUACUUCGGUACAUAGUAUCAGAAGGGACAUCAU [Ex1-3: 13] (puzzle: Exclusion 1)	–	–	–	–	79.2	–
AUAGAUCGUUAGGAUAUCCAGAUGACCCUCGUUGGAGAAGGAACGACAUGAGGAUCACCCAUGUUAUAGUACUU [Eternabot (L2) Solution 66] (Eterna round: R97, puzzle: Exclusion 6)	16.9	18.5	–	–	–	–
GUGUACGGAGGAUAUGCUGGAAUCUAGCGAAGCUAGGUUCCACAUGAGGAUCACCCAUGUAGAAGGUCGUACAC [Dot plot directed A v8] (puzzle: Exclusion 2)	–	–	–	–	29.6	–
CUUAAUUGUCAGAUGGGUGACAUGAGGAUCACCCAUGUCACAAGCUUUUUGUUCGUCUUAUAAUUAACCCAUCUGAC [Stov1/11-B3] (Eterna round: R97, puzzle: Sensor, turn-off variant 1)	14.5	12.3	–	–	–	–
CAAUGCGGAGGAUAUACAUUUAUGACUGCCACAGUACCGAGACAUGAGGAUCACCCAUGUAGAAGGCCGAUUAA [EX2 B.9] (Eterna round: R97, puzzle: Exclusion 2)	20.4	16.7	–	–	–	–
AGGUGUAGAGGAUAUCUAUACUCCCACAUGAGGAUCACCCAUGUCCUGGUCACCAAGGACGGAGAAGGCUACACCA [Omei Ex5 D22] (Eterna round: R97, puzzle: Exclusion 5)	130	68.3	–	–	–	–
UCUCUGCGAGGAUAUACGUGCGCGCGCGCGCGCGCGCGCGUACAUGAGGAUCACCCAUGUAGAAGGCGCUCUGC [Apr-15 SS2-3] (puzzle: Exclusion 2)	–	–	–	–	19.4	–
AGAAAUGCCCAUGGCCACAAGCUUUUUGCUUAUCUUACUACAUGAGGAUCACCCAUGUAACAUGGGCUCCUGACAAU [Enrionera] (puzzle: Sensor v3, turn-off variant 2)	–	–	–	14.9	11.2	13.3
ACAUGAGGAUCACCCAUGUCCGGCUGGUCUGUUCCGGUUGUCGAGGAUAUAGUUCGGUGUUCGCGCUAGAAGGUGGGAGCUGGG [Aenatbe mod 55] (Eterna round: R96, puzzle: Exclusion NG 3)	308	190	163	–	–	–
GUGCCACAUGAGGAUCACCCAUGUGAGGAUAUGGCCUGUUUGGCGUGUGCUGGCUCUGUCAGAAGGCGCGUGGG [salish99_ex1_r4_037] (Eterna round: R97, puzzle: Exclusion 1)	39.1	26.8	–	–	–	–
ACAUGAGGAUCACCCAUGUCAGGCUGGUCCACUCCGGCUGUUGAGGAUAUAGCCCGGUAUCCGCGCUAGAAGGUGAGGGCCGGC [Aenatbe mod 27] (Eterna round: R96, puzzle: Exclusion NG 3)	25.5	23	17.6	–	–	–
GAAAAGGUAGGAUAUACGAAAAAAAAGGGUAGAAAAAAAGCACAUGAGGAUCACCCAUGUAGAAGGACCAAAAG [salish99_ex2_r3_018] (puzzle: Exclusion 2)	–	–	–	137	32.5	33.5
UCUUUACAUGAGGAUCACCCAUGUGAGGAUAUGGUUUCGCUGGCCGUAGCCAGUGGAACCAGAAGGCGCAUGAU [Mat - Exclusion 1 - JL Mod - D9] (Eterna round: R97, puzzle: Exclusion 1)	51.4	27.9	–	–	–	–
UUAAUUAAUGUGAGGAUAUCUAGAGCUGCGGCUCUAGAGAAGGCACAUGAGGAUCACCCAUGUCUCAAUUAAUU [BmEx4/2-E3] (Eterna round: R97, puzzle: Brourd's mod of Exclusion 4)	21.6	14.7	–	–	–	–
